Consider 5 molecules from publication PMC9482650, “Quantitative fragmentomics allow affinity mapping of interactomes” (Nature Communications, 2022).

As a reminder, the pKd is −log10 of the Kd, conventionally taken in molar units.

Some targets named below: AHNAK1, Q09666; DLG1_3, Q12959; DLG2_3, Q15700; HTRA1, Q92743; IL16_3, Q14005; MAGI2_5, Q86UL8; MAST1, Q9Y2H9; NHERF4_2, Q86UT5; NOS1, P29475; PICK1, Q9NRD5; PTPN3, P26045; TJP1_2, Q07157.
Assay in all cases: holdup assay
Set-up in all cases: key: below the threshold = too weak to quantify, mostly under pKd 3.1 to 4
Conditions in all cases: plain residues with an end cap or a label only (N-terminal biotin on a linker: ado-ado)

For a further experiment, the target named is T1, APBA3_1, O96018.
T1 sequence (O96018 389-490, limits assumed, looked up): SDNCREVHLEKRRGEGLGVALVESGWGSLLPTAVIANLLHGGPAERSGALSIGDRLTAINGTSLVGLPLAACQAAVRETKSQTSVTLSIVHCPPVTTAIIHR

The next experiment addresses T2, ARHGEF11, O15085.
T2 sequence (O15085 42-136, limits assumed, looked up): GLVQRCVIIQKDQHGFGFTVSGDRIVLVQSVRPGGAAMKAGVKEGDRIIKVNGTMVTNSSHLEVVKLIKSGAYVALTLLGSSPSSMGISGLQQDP

For the next experiment, the target named is T3, DFNB31_3, Q9P202.
T3 sequence (Q9P202 811-907, limits assumed, looked up): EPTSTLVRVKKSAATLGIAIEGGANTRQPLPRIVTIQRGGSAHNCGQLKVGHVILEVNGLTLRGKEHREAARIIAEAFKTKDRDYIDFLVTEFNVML

The next experiment deals with T4, DLG3_1, Q92796.
T4 sequence (Q92796 125-227, limits assumed, looked up): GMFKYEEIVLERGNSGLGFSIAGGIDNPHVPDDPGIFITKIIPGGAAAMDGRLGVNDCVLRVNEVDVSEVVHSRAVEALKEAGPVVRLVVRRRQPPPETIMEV

In another experiment the target is T5, LIN7A, O14910.
T5 sequence (O14910 103-200, limits assumed, looked up): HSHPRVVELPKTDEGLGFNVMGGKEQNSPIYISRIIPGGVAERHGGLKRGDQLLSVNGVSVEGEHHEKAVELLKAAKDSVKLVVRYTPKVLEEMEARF

The next experiment has as its target T6, LRRC7, Q96NW7.
T6 sequence (Q96NW7 1440-1537, limits assumed, looked up): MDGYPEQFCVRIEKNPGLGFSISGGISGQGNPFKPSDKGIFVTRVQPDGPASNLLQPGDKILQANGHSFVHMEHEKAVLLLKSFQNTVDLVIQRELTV

Another experiment concerns the target T7, MPDZ_10, O75970.
T7 sequence (O75970 1624-1722, limits assumed, looked up): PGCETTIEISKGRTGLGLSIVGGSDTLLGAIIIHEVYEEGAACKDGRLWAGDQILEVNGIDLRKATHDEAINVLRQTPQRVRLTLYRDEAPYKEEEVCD

The next experiment deals with T8, MPDZ_12, O75970.
T8 sequence (O75970 1857-1958, limits assumed, looked up): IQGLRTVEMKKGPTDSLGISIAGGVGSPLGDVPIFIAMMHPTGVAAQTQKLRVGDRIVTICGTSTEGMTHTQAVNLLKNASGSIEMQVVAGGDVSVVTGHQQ

The target of the next experiment is T9, MPDZ_5, O75970.
T9 sequence (O75970 695-796, limits assumed, looked up): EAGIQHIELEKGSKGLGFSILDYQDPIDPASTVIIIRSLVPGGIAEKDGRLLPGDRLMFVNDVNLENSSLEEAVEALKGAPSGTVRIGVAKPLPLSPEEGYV

In a further experiment the target is T10, NHERF3_4, Q5T2W1.
T10 sequence (Q5T2W1 373-468, limits assumed, looked up): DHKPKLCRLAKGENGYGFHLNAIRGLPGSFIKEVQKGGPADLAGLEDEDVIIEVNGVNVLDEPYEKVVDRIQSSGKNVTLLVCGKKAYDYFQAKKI

The target in another experiment is T11, PDZRN3_1, Q9UPQ7.
T11 sequence (Q9UPQ7 244-349, limits assumed, looked up): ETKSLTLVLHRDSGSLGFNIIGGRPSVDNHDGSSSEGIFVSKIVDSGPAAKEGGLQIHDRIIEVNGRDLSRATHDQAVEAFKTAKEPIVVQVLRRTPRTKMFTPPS

Another experiment addresses T12, TX1BP3, O14907.
T12 sequence (O14907 10-122, limits assumed, looked up): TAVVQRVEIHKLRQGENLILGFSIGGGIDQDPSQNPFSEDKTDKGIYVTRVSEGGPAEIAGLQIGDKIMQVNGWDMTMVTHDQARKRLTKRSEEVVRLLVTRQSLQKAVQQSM

Chain of PTPN3, P26045 (P26045 505-587): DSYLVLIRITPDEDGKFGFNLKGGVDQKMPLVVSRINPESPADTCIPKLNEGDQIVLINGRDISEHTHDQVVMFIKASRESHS
Chain of NOS1, P29475 (P29475 9-101): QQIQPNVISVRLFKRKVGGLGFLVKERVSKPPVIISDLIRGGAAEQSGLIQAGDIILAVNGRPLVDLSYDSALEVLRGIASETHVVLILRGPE
Chain of IL16_3, Q14005 (Q14005 1107-1207): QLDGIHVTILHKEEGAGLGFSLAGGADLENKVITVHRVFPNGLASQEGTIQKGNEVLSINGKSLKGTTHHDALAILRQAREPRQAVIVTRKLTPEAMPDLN
Chain of MAGI2_5, Q86UL8 (Q86UL8 915-1017): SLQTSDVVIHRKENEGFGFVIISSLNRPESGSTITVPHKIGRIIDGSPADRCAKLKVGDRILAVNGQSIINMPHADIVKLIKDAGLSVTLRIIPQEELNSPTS
Chain of DLG1_3, Q12959 (Q12959 457-571): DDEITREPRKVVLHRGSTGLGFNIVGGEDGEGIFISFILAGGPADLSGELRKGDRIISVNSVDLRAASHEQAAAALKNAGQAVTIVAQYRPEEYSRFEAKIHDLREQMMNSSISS
Chain of TJP1_2, Q07157 (Q07157 181-274): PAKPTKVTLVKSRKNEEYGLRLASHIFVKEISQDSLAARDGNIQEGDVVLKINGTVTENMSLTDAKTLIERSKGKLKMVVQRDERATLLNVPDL
Chain of MAST1, Q9Y2H9 (Q9Y2H9 962-1065): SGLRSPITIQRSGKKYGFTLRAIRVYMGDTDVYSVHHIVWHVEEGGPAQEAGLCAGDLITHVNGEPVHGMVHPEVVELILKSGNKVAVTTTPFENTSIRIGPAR
Chain of NHERF4_2, Q86UT5 (Q86UT5 220-308): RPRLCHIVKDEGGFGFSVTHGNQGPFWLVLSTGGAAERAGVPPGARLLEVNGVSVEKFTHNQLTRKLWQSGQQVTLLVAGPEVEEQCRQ
Chain of AHNAK1, Q09666 (Q09666 4-100): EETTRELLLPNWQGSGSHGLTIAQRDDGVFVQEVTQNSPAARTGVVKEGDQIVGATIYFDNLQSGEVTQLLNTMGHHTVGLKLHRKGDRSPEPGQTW
Chain of HTRA1, Q92743 (Q92743 360-477): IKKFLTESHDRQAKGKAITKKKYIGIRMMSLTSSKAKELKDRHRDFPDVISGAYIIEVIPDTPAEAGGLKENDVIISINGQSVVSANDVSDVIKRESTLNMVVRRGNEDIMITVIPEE
Chain of PICK1, Q9NRD5 (Q9NRD5 17-115): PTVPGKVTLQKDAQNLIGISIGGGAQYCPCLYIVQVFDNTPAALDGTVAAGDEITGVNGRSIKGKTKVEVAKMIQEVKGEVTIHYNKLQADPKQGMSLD

VISSDDLTEL [CAPN6, Q9Y6Q1]: the pKd entry in the experiment with AHNAK1, Q09666 was “below the threshold”; with APBA3_1, O96018 it was “below the threshold”; in the experiment with ARHGEF11, O15085 it was 4.45; in the experiment with DFNB31_3, Q9P202, 4; with DLG1_3, Q12959, “below the threshold”; in the experiment with DLG2_3, Q15700 it was 3.53. The negative-log Kd (pKd) entry with DLG3_1, Q92796 was “below the threshold”; with HTRA1, Q92743 it was 4.55; with IL16_3, Q14005, “below the threshold”; in the experiment with LIN7A, O14910, “below the threshold”; with LRRC7, Q96NW7, “below the threshold”; with MAGI2_5, Q86UL8 it was 3.53. For the same molecule, the pKd with MAST1, Q9Y2H9 was 4.99; with MPDZ_10, O75970 it was “below the threshold”; with MPDZ_12, O75970 it was “below the threshold”; with MPDZ_5, O75970, “below the threshold”; with NHERF3_4, Q5T2W1, “below the threshold”; in the experiment with NHERF4_2, Q86UT5 it was “below the threshold”. The pKd entry with NOS1, P29475 is “below the threshold”; with PDZRN3_1, Q9UPQ7, “below the threshold”; in the experiment with PICK1, Q9NRD5 it was “below the threshold”; in the experiment with PTPN3, P26045, 4.12; with TJP1_2, Q07157, “below the threshold”; with TX1BP3, O14907, “below the threshold”.

For the molecule NKSEPFLTWL [WWTR1, Q9GZV5], the pKd entry with AHNAK1, Q09666 was “below the threshold”; in the experiment with APBA3_1, O96018, 3.5; with ARHGEF11, O15085, 5.33; with DFNB31_3, Q9P202, 5.34; with DLG1_3, Q12959 it was “below the threshold”; in the experiment with DLG2_3, Q15700, “below the threshold”. Also, the pKd result with DLG3_1, Q92796 was “below the threshold”; with HTRA1, Q92743 it was 4.91; with IL16_3, Q14005 it was “below the threshold”; with LIN7A, O14910, “below the threshold”; with LRRC7, Q96NW7, 4.31; with MAGI2_5, Q86UL8, 3.94. Besides, the pKd with MAST1, Q9Y2H9 was 4.25; with MPDZ_10, O75970, “below the threshold”; with MPDZ_12, O75970 it was 4.9; with MPDZ_5, O75970, “below the threshold”; with NHERF3_4, Q5T2W1, 4.15; with NHERF4_2, Q86UT5, “below the threshold”. Besides, the pKd with NOS1, P29475 is 4.05; with PDZRN3_1, Q9UPQ7, 3.76; in the experiment with PICK1, Q9NRD5, “below the threshold”; with PTPN3, P26045, 4.74; with TJP1_2, Q07157, “below the threshold”; in the experiment with TX1BP3, O14907, 4.49.

Turning to RGKNRRQSIF [CDK18, Q07002], the negative-log Kd (pKd) result with AHNAK1, Q09666 was “below the threshold”; with APBA3_1, O96018, “below the threshold”; with ARHGEF11, O15085, “below the threshold”; with DFNB31_3, Q9P202, 3.65; with DLG1_3, Q12959, 3.71; in the experiment with DLG2_3, Q15700, 4.11. Moreover, the pKd result was “below the threshold” in the experiment with DLG3_1, Q92796; 4 with HTRA1, Q92743; “below the threshold” with IL16_3, Q14005; “below the threshold” in the experiment with LIN7A, O14910; “below the threshold” in the experiment with LRRC7, Q96NW7; “below the threshold” in the experiment with MAGI2_5, Q86UL8. In addition, the pKd in the experiment with MAST1, Q9Y2H9 was 4.15; with MPDZ_10, O75970, 3.48; with MPDZ_12, O75970, 3.58; with MPDZ_5, O75970, “below the threshold”; in the experiment with NHERF3_4, Q5T2W1, “below the threshold”; with NHERF4_2, Q86UT5, “below the threshold”. Moreover, the negative logarithm of the Kd (pKd) was 3.75 with NOS1, P29475; “below the threshold” with PDZRN3_1, Q9UPQ7; 4.17 with PICK1, Q9NRD5; 3.77 with PTPN3, P26045; “below the threshold” with TJP1_2, Q07157; “below the threshold” with TX1BP3, O14907.

As to AKADAQESRL [PLCB2, Q00722], the pKd result with AHNAK1, Q09666 is “below the threshold”; in the experiment with APBA3_1, O96018 it was “below the threshold”; in the experiment with ARHGEF11, O15085, 3.66; in the experiment with DFNB31_3, Q9P202 it was “below the threshold”; with DLG1_3, Q12959, “below the threshold”; in the experiment with DLG2_3, Q15700, “below the threshold”. Also, the pKd result with DLG3_1, Q92796 was “below the threshold”; with HTRA1, Q92743 it was “below the threshold”; with IL16_3, Q14005 it was “below the threshold”; in the experiment with LIN7A, O14910, 3.65; with LRRC7, Q96NW7, “below the threshold”; in the experiment with MAGI2_5, Q86UL8, 3.59. The pKd with MAST1, Q9Y2H9 was 4.85; with MPDZ_10, O75970, “below the threshold”; in the experiment with MPDZ_12, O75970 it was “below the threshold”; with MPDZ_5, O75970, “below the threshold”; with NHERF3_4, Q5T2W1 it was “below the threshold”; with NHERF4_2, Q86UT5, “below the threshold”. Moreover, the pKd entry is “below the threshold” with NOS1, P29475; 4.42 in the experiment with PDZRN3_1, Q9UPQ7; “below the threshold” with PICK1, Q9NRD5; 4.74 with PTPN3, P26045; “below the threshold” in the experiment with TJP1_2, Q07157; 3.96 with TX1BP3, O14907.

In the case of THHRKIHTRV [ZNF599, Q96NL3], the negative logarithm of the Kd (pKd) result is “below the threshold” in the experiment with AHNAK1, Q09666; “below the threshold” with APBA3_1, O96018; 4.25 in the experiment with ARHGEF11, O15085; “below the threshold” with DFNB31_3, Q9P202; 4.15 with DLG1_3, Q12959; 4.41 with DLG2_3, Q15700. Further, the pKd in the experiment with DLG3_1, Q92796 is 4.48; in the experiment with HTRA1, Q92743, 3.67; in the experiment with IL16_3, Q14005 it was “below the threshold”; in the experiment with LIN7A, O14910, “below the threshold”; in the experiment with LRRC7, Q96NW7 it was “below the threshold”; in the experiment with MAGI2_5, Q86UL8 it was 3.75. The pKd in the experiment with MAST1, Q9Y2H9 was 4.48; in the experiment with MPDZ_10, O75970, 3.92; in the experiment with MPDZ_12, O75970, “below the threshold”; in the experiment with MPDZ_5, O75970, 3.55; with NHERF3_4, Q5T2W1, 3.55; with NHERF4_2, Q86UT5, “below the threshold”. Further, the pKd with NOS1, P29475 was 4.02; in the experiment with PDZRN3_1, Q9UPQ7, 3.75; in the experiment with PICK1, Q9NRD5, “below the threshold”; with PTPN3, P26045, “below the threshold”; with TJP1_2, Q07157 it was 3.62; with TX1BP3, O14907, 3.74.
